Measurements as given in US20090304706A1.

B1: monoclonal antibody CHIR-5.9 (antibody, human IgG1, kappa, V domains shown)
VH: EVQLVQSGAEVKKPGESLKISCKGSGYSFTSYWIGWVRQMPGKGLEWMGIIYPGDSDTRYSPSFQGQVTISADKSISTAYLQWSSLKASDTAMYYCARGTAAGRDYYYYYGMDVWGQGTTVTVSS
VL: AIVMTQPPLSSPVTLGQPASISCRSSQSLVHSDGNTYLNWLQQRPGQPPRLLIYKFFRRLSGVPDRFSGSGAGTDFTLKISRVEAEDVGVYYCMQVTQFPHTFGQGTRLEIKR

Target: human CD40 (human) (UniProt P25942)
Experiment: Biacore (SPR)

Sequence of UniProt P25942 (P25942 20-193 limits assumed): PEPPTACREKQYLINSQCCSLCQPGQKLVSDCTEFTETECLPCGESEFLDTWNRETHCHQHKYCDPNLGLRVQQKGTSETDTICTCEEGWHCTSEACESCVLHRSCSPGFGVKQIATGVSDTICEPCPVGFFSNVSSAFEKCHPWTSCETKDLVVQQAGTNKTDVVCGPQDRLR

Molecule | Kd
monoclonal antibody CHIR-12.12 | 0.5 nM
B1 | 12 nM
